Results from US20110086767A1, “MUTANTS OF GLYCOSIDE HYDROLASES AND USES THEREOF FOR SYNTHESIZING COMPLEX OLIGOSACCHARIDES AND DISACCHARIDE INTERMEDIATES” (Institut Pasteur, priority 2008, published 2011).

Legend:
Type in all cases: biochemical
[1] = Enzymatic glucosylation of D-GlcpNAc derivatives: β-D-GlcpNAc-OAll; conditions: sucrose:acceptor 1:1 (146 mM); estimated according to peak areas
Experimental: (§1) The mutant F290K and the ASNPwt were tested on other D-GlcNAc derivatives (α-D-GlcpNAc-OMe, β-D-GlcpNAc-OMe, β-D-GlcpNAc-Oallyl and D-GlcNHTCA) used as potential acceptors. The enzymatic reaction was carried out using sucrose as donor and D-GlcNAc derivative as acceptor in a 1:1 ratio (146 mM)
(§2) Efficiency of the glucosylation reaction was evaluated by HPLC analysis of the acceptor reaction product synthesized a Biorad HPLC Carbohydrate Analysis column (HPX-87K column (300×7.8 mm))
(§3) Percentages of glucosylation rates were estimated according to peak areas as no reference was available.

[2] = HPLC screening of double-mutant libraries for variants able to glucosylate D-GlcpNAc; conditions: α-D-Glcp-(1→4)-α-D-GlcpNAc (ED) from sucrose and D-GlcpNAc, microplate format
Experimental: The protocol was established to enable the rapid identification of clones for which D-GlcpNAc glucosylation was improved. To obtain higher amounts of enzymes and facilitate detection of glucosylated compounds upon HPLC screening, mutants were produced in 96-DeepWell Format plates. Storage microplates containing monomutants were thawed and replicated to inoculate a starter culture in 96-well microplates containing, in each well, 150 μL LB medium supplemented with ampicillin (100 μg/mL). After growth for 24 h at 30° C. under agitation (200 rpm), plates were duplicated into 96-Deep Well plates containing, in each well, 1.1 mL LB medium supplemented with ampicillin (100 μg/mL) and IPTG (1 mM) to induce GST-AS expression. Cultures were then grown for 24 h at 30° C. under agitation (200 rpm). Plates were centrifuged (20 min, 3000 g, 4° C.) and the supernatant was removed. The cell pellet was resuspended in 200 μL of lysozyme (0.5 mg/mL), followed by freezing at −80° C. for 8 to 12 h. After thawing at room temperature, 100 μL of sucrose and 100 μL of acceptor (each at a final concentration of 73 mM) were added to each well. Enzymatic reaction was incubated at 30° C. during 24 h under agitation. The DeepWell plates were then centrifuged (20 min, 3000 g, 4° C.) and 300 μL of the supernatant was transferred to a filter micro-plate (PVDF 0.2 μm) to be clarified. Supernatant filtration was carried out by centrifugation of the filter micro-plate (5 min, 2000 g, 4° C.) into a novel microplate for screening.
The method for the expression of the mutant libraries is described in Example 1-1.
Acceptor reaction products were analyzed by HPLC analysis using a C18-AQ column (Bischoff C18, 125×4 mm, 3 μm) kept at room temperature and eluted with 0.6 mL/min of ultra-pure water to detect α-D-Glcp-(1→4)-α-D-GlcpNAc formation (analysis time: 7 min). To evaluate the efficiency of the glucosylation reaction, it was carried out complementary HPLC analyses with a Biorad HPX-87K Carbohydrate Analysis column (maintained at 65° C., and eluted at a flow rate of 0.6 mL/min with ultra-pure water). By this way, it was possible to measure sucrose consumption by RI detection and concomitant α-D-Glcp-(1-4)-α-D-GlcpNAc formation by UV220 nm and determine mutant ability to synthesize the desired disaccharide α-D-Glcp-(1→4)-α-D-GlcpNAc (i.e., % Glucosyl units transferred onto acceptor derivatives=[Glucosyl units transferred onto acceptor derivatives]/[Glucosyl units transferred from initial sucrose]×100)
All clones producing sucrose-utilizing variants were then picked and cultured in 96-well microplates. Following cell lysis, the acceptor reaction in the presence of D-GlcpNAc was then carried out in microplate format. HLPC analysis time for each clone was reduced to 7 min for detection of α-D-Glcp-(1→4)-α-D-GlcpNAc. When disaccharide formation was detected, complementary analyses were performed to determine sucrose consumption and disaccharide formation with more accuracy in order to calculate the glucosylation yield.

[3] = Enzymatic glucosylation of D-GlcpNAc derivatives: α-D-GlcpNAc-OMe; conditions: sucrose:acceptor 1:1 (146 mM); estimated according to peak areas
Experimental: as §1, §2, §3

B1: F290K: single mutant F290K of N. polysaccharea amylosucrase 1G5A (protein)
chain: SPNSQYLKTRILDIYTPEQRAGIEKSEDWRQFSRRMDTHFPKLMNELDSVYGNNEALLPMLEMLLAQAWQSYSQRNSSLKDIDIARENNPDWILSNKQVGGVCYVDLFAGDLKGLKDKIPYFQELGLTYLHLMPLFKCPEGKSDGGYAVSSYRDVNPALGTIGDLREVIAALHEAGISAVVDFIFNHTSNEHEWAQRCAAGDPLFDNFYYIFPDRRMPDQYDRTLREIFPDQHPGGFSQLEDGRWVWTTFNSFQWDLNYSNPWVFRAMAGEMLFLANLGVDILRMDAVAKIWKQMGTSCENLPQAHALIRAFNAVMRIAAPAVFFKSEAIVHPDQVVQYIGQDECQIGYNPLQMALLWNTLATREVNLLHQALTYRHNLPEHTAWVNYVRSHDDIGWTFADEDAAYLGISGYDHRQFLNRFFVNRFDGSFARGVPFQYNPSTGDCRVSGTAAALVGLAQDDPHAVDRIKLLYSIALSTGGLPLIYLGDEVGTLNDDDWSQDSNKSDDSRWAHRPRYNEALYAQRNDPSTAAGQIYQDLRHMIAVRQSNPRFDGGRLVTFNTNNKHIIGYIRNNALLAFGNFSEYPQTVTAHTLQAMPFKAHDLIGGKTVSLNQDLTLQPYQVMWLEIA
- glucosylation of acceptor β-D-GlcpNAc-OAll [1]: > 95%
- Glusosylation Yield to synthesize ED ([2]; listed as DM4_P2_D12): 41%
- Glusosylation Yield to synthesize ED ([2]; listed as DM4_P2_H4): 42%
- glucosylation of acceptor α-D-GlcpNAc-OMe [3]: > 95%
